According to publication PMC7265321 (The Journal of Cell Biology, 2020):

T1: MEI-1 S92-aaPho-6xHis (C. elegans, UniProt P34808 1-472, phosphoserine at 92 (100% by mass spectrometry))
T1 sequence (looked up): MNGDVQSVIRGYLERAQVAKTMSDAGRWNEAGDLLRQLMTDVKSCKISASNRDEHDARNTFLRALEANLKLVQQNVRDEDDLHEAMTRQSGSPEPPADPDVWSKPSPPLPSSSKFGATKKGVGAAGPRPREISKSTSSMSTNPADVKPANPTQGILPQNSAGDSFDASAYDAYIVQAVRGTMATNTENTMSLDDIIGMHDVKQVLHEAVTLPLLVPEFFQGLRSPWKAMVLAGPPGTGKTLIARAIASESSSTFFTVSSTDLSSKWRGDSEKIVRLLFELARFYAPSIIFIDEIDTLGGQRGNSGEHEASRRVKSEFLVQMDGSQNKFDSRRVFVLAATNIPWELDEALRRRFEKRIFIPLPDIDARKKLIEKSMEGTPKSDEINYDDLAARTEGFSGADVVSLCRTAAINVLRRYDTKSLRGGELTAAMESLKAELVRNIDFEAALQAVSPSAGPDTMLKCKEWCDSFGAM

T2: 6xHis-MEI-1 S92D (C. elegans, UniProt P34808 1-472, S92D)
T2 sequence (looked up): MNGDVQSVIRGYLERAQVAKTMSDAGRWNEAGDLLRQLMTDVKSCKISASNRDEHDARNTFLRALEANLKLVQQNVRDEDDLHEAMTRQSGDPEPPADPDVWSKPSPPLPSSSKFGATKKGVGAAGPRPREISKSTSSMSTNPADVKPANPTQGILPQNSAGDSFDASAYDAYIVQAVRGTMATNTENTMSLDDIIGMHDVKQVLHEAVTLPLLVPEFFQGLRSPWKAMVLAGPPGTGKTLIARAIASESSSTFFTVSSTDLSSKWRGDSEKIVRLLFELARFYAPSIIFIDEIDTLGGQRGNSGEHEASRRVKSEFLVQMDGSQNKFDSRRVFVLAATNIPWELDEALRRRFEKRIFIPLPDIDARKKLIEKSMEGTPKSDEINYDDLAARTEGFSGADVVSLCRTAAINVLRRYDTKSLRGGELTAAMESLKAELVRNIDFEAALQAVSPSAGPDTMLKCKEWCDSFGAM

T3: Katanin with MEI-1 S92D (6xHis-MEI-1 S92D / Strep-MEI-2) (C. elegans, UniProt P34808 1-472; O44740 1-280, S92D)
T3 sequence (looked up) 1: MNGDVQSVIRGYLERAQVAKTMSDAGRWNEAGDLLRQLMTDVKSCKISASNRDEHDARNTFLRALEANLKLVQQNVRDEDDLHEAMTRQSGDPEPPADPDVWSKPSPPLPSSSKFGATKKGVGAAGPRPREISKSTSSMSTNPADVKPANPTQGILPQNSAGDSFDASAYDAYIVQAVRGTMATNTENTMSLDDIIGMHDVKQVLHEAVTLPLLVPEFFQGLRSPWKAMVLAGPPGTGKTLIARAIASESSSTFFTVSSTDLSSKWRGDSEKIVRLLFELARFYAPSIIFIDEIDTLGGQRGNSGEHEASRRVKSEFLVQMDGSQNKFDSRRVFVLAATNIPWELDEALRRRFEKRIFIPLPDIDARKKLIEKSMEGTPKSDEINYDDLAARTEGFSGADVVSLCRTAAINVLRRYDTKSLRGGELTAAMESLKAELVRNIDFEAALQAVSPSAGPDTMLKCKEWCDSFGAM
T3 sequence (looked up) 2: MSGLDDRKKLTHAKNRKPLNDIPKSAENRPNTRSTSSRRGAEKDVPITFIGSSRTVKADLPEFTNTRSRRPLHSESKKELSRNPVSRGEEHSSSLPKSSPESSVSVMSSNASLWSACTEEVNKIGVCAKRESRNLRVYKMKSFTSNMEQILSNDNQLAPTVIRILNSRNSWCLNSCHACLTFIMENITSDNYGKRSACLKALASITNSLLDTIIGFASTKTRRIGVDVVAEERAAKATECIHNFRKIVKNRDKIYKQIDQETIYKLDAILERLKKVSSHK


Legend:
MEL-26 [1] = target: MEL-26 (UniProt Q94420); experiment: native dot blot of Katanin; conditions: reference: unmodified wild type; sites S92
MEL-26 [2] = target: MEL-26 (UniProt Q94420); experiment: Far-Western after SDS-PAGE; conditions: reference: unmodified wild type; sites S92
MEI-1 S92-aaPho-6xHis = target: T1, MEI-1 S92-aaPho-6xHis; experiment: far-Western
6xHis-MEI-1 S92D = target: T2, 6xHis-MEI-1 S92D; experiment: far-Western
[3] = target: T3, Katanin with MEI-1 S92D (6xHis-MEI-1 …); experiment: overlay or dot blot

binding against the reference (MEL-26 [1])	binding against the reference (MEL-26 [2])	binding result (MEI-1 S92-aaPho-6xHis)	binding result (6xHis-MEI-1 S92D)	binding result [3]	Molecule
stronger	stronger	–	–	–	MEI-1 (Katanin p60 catalytic subunit) (from UniProt P34808) S92-aaPho (phosphoserine by genetic code expansion)
–	–	binds	binds	binds	GST-MEL-26 (natural protein, C. elegans, UniProt Q94420 1-395, looked up) MEPRIDGGVFIGGIGNSGNEMCSNGVPALGVSSQTEIKVEKVQHTWTVKNFSHCYQEYLENFVYLQRGDEQLTWSIKIYPKGNGENNKDFVFLCLNRVINNNVKAGKIGFKSQFKLRTAENKDIEMRIHPNPSHSDYVSYIKRDVLFPQIMPRDMIIVNVEIDVAVETITTTNEPIQFEPTNSEQQLIEDYQRLFSQELLCDFAINVNGKIIRAHKAVLAARSPVFNAMLTHQDTDEAKSSMMYINDMDYDVIYEMVYYIYCGRCNKDITDMATALLIAADKYRLEELKSHCEKYLVENINIENACSLLIIGDLYSAPKLRKRAVTYILARPKNVTGTPGWEDILKGHPNLITDIFSQIDRQSSTGATSSVSNLPGVPMDIPGITGNIVPPPSGL
